The assay concerns the target T1, 寨卡病毒包膜蛋白的结构域III (ZIKV-EDⅢ抗原) (Zika virus (strain NCBI KU740184.2)).
T1 construct: domain: 结构域III (EDIII); also called ZIKV-EDIII; ZIKV EDIII
Briefly: SPR (OpenSPR, COOH chip), ZIKV-EDIII immobilised, nanobody as analyte, 1:1 model.

B1: 纳米抗体Nb-E5 (VHH)
VHH: SDSEVNQEAKPEVKPEVKPETHINLKVSDGSSEIFFKIKKTTPLRRLMEAFAKRQGKEMDSLRFLYDGIRIQADQTPEDLDMEDNDIIEAHREQIGGMAVQLVESGGGLVQPGGSLRLSCKVSGRPFTTYALGWFRQAPGKEREFLTVGAWRGQIFTAESVRGRFTISLDTAKNTFDLQMNSLNIEDTAVYYCAAGSRSSNTPQADPGSFDYWGQGTQVTVSSGAR
notes: no removal of the tag is told, and detection used anti-SMT3 / anti-His antibodies; From a naive alpaca phage library; not shown: 6×His tag at the N-terminus of SUMO (pET-28a-SUMO vector)
For B1, the Kd amounted to 8.22 nM.
